Series [1] has as its system TALEN Beta2M T01 LEFT (artificial). Briefly: cell_activity. The note with it: primary T cells, 10 ug TALEN mRNA as pair with right monomer, 3 days post electroporation; 38% at 2 ug; untransfected nearly 100% positive.
Series [2] deals with TALEN Beta2M T01 RIGHT (artificial). Briefly: cell_activity. Particulars: primary T cells, 10 ug TALEN mRNA as pair with left monomer, 3 days post electroporation; 38% at 2 ug; untransfected nearly 100% positive.

Turning to “TGGCCTTAGCTGTGCTC (double strand) [B2M T01 target, left half-site]”, the activity (% beta2-m negative cells) in series [1] amounted to 80.
In series [2], “TTCTGGCCTGGAGGCTA (double strand) [B2M T01 target, right half-site]” registered an activity (% beta2-m negative cells) of 80.
